The target of assay [1] is T1, human L1CAM (purified extracellular domain) (human, UniProt P32004 20-1112).
T1 construct: range 1-1112; Expressed in HEK293T from pJK-dhfr2-L1-monomer; The stated range 1-1112 begins at residue 1 of the precursor; no signal peptide limits are stated; also called human L1CAM antigen
Description: Octet RED (called SPR in the filing), antibody on AHC sensor, soluble human L1CAM. On the procedure: (§1) In addition to the competitive ELISA, SPR (surface […] resonance) was measured using Octet RED (ForteBio, USA) according to the manufacturer's protocol to determine the affinities of Ab417 antibody and Ab4M antibody for human and mouse L1CAM. […] AHC (anti-human IgG Fc capture) sensor chip was used to analyze binding kinetics of the antibodies to antigens by examining changes in refractive index which occurs upon association and dissociation of antibody and antigen while transferring the sensor chip to PBS solution, antibody, PBS solution, antigen, and PBS solution in this order.

In assay [2] the target is T2, mouse L1CAM (purified extracellular domain with S1 tag) (mouse, UniProt P11627 20-1123).
T2 construct: extracellular domain; also called mouse L1CAM monomer; not shown: S1 tag from the pJEX2T vector
As to the kind of experiment: not stated there (summary of the filing's affinity measurements).

Assay [3] has as its target T1, human L1CAM (purified extracellular …). As to the kind of experiment: Octet RED. The method, then:
as §1

For assay [4], the target named is T2, mouse L1CAM (purified extracellular …). Description: competitive ELISA with mouse L1CAM. On the technique in general: In an ELISA, binding on a coated surface is turned into a signal by an enzyme label.
In assay [5] the target is T1, human L1CAM (purified extracellular …). Description: competitive ELISA. The method, then: (§2) The affinities of the purified antibodies for human L1CAM were measured by competitive ELISA. Human L1CAM was prepared at a density of 1×10⁻⁶ M and serially diluted to 1×10⁻¹¹ M using a PBS buffer solution. Respective antibodies were prepared by diluting them in PBS buffer solution at particular concentrations according to their binding capacity. The antigens and antibodies thus diluted were reacted with each other at the same volume ratio, and allowed to react at room temperature for 2 hours.
(§3) 96-well plates (MaxiSorp, Nunc) were coated using the purified human L1CAM which were diluted in a buffer solution (15 mM Na₂CO₃, 34.84 mM NaHCO₃, pH 9.6) at a concentration of 100 ng/well, at 4° C. overnight. Next day, the wells were washed with 0.05% PBS-T buffer solution twice. Difco skim milk (BD) was dissolved in 0.05% PBS-T buffer solution at a concentration of 2%, and 200 μl thereof was added to each well, followed by incubation at room temperature for 1 hour. Then, the wells were washed with 0.05% PBS-T buffer solution twice. To the plate, 100 it of the antigen/antibody reactant that were reacted for 2 hours was added and allowed to react at room temperature for 1 hour. Then, the wells were washed with 0.05% PBS-T buffer solution three times to remove non-antigen bound antibodies. Goat anti-human IgG(Fc)-HRP (Pierce, 1/5000) that specifically recognizes the Fc region of human antibody was added as a secondary antibody, and allowed to react at room temperature for 1 hour. Then, the wells were washed with 0.05% PBS-T buffer solution four times to remove the remaining secondary antibodies. […] Then, 50 μl of 2.5 M H₂SO₄ solution was added to each well to terminate the enzymatic reaction. After terminating the reaction, absorbance was measured at 450 nm (VERSAmax microplate reader, Molecular Devices).
Affinity of the purified Ab417 antibody for human L1CAM was measured by competitive ELISA in the same manner as in Example 3-2.

The target is the same in assay [6]. As to the kind of experiment: competitive ELISA (soluble human L1CAM against coated human L1CAM). On the procedure: as §2, §3
Assay [7] has the same target. Description: Octet RED, antibody on AHC sensor, soluble human L1CAM. On the procedure:
(§4) Affinities of Ab417, Ab417-H6L2 mutant, and Ab417-H6L6 mutant for human and mouse L1CAM were examined using Octet RED (fortebio). […] Each 200 it thereof was added to opaque 96-well plate to prevent light transmission. AHC (anti-human IgG Fc capture) sensor chip was used to analyze binding kinetics of the antibodies to antigens by examining changes in refractive index which occurs upon association and dissociation of antibody and antigen while transferring the sensor chip to PBS solution, antibody, PBS solution, antigen, and PBS solution in this order.
(§5) Despite amino acid substitution, there were no changes in the affinities of these antibodies (Table 4), and there were also no changes in the affinities of these antibodies for mouse L1CAM (Table 5).
In general terms: Biolayer interferometry detects binding as a change in optical thickness at a sensor tip.

Assay [8] addresses T2, mouse L1CAM (purified extracellular …). Description: Octet RED, antibody on AHC sensor, soluble mouse L1CAM. The method, then: as §4, §5
Assay [9] concerns the target T1, human L1CAM (purified extracellular …). Description: not stated there (summary of the filing's affinity measurements); rounded summary value, no assay named.
Assay [10] concerns the target T2, mouse L1CAM (purified extracellular …). Description: Octet RED (called SPR in the filing), antibody on AHC sensor, soluble mouse L1CAM. On the procedure:
as §1

T2 sequence (P11627 20-1123): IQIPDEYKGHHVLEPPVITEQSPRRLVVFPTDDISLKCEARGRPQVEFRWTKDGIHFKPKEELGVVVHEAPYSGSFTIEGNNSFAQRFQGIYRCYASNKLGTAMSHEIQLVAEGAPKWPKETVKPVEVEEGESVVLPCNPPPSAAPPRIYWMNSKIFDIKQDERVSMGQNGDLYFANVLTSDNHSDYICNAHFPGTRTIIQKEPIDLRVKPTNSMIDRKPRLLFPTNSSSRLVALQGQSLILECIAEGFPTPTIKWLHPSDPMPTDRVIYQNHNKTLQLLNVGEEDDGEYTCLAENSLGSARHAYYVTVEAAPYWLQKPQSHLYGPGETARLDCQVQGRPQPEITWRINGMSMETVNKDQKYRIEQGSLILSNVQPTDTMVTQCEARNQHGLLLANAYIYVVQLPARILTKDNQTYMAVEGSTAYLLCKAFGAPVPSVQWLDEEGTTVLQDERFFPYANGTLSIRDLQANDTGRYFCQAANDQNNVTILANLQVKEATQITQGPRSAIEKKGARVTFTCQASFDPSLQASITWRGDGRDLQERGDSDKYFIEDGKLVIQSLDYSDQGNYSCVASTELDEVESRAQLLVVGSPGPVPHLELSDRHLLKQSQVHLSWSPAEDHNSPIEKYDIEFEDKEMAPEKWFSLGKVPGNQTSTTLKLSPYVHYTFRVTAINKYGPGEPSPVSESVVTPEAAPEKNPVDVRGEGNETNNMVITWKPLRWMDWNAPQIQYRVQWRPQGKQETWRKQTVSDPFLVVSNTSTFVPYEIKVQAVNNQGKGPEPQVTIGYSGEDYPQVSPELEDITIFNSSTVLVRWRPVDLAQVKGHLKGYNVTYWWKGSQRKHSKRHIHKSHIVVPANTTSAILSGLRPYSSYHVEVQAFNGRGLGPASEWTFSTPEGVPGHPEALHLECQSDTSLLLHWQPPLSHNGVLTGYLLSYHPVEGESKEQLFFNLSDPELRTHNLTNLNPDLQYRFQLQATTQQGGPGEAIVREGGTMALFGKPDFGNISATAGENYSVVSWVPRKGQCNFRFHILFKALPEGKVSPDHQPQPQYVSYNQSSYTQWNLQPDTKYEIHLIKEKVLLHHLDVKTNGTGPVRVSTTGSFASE
T1 sequence (P32004 20-1112 limits assumed, form in doubt): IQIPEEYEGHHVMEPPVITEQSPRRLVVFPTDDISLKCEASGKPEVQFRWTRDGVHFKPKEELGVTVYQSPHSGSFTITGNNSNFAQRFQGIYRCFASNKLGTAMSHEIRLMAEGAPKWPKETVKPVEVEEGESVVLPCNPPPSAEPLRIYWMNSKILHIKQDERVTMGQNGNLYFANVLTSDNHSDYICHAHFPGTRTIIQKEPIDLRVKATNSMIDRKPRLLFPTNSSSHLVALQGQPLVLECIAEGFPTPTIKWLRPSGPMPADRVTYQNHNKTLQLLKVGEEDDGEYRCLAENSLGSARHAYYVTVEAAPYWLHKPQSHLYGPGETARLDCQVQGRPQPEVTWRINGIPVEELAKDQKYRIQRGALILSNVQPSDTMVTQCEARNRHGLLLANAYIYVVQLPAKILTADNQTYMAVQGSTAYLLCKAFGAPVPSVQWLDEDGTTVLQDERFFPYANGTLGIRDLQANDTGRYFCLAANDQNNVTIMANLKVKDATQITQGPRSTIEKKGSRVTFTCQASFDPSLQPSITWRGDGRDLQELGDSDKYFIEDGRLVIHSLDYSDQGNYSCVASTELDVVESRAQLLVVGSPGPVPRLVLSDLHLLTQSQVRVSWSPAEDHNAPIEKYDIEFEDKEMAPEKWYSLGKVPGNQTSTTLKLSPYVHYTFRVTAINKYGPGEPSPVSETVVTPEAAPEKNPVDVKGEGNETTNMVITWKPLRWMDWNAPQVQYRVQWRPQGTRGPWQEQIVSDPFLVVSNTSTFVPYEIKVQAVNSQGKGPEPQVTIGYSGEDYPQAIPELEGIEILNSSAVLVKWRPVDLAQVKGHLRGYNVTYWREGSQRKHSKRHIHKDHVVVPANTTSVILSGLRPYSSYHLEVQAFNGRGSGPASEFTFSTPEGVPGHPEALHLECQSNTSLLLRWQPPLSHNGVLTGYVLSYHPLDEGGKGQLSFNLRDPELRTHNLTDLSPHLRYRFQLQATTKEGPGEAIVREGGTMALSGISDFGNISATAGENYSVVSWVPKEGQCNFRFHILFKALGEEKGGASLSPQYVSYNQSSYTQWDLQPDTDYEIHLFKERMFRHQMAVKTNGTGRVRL

B1: Ab417 antibody (antibody, V domains shown)
VH: EVQLVESGGGVVQPGRSLRLSCAASGFTFSRFGMHWVRQAPGKGLEWVAFISNDGSNKYYADSVKGRFTISRDNSKNTLYLQMNSLRPEDTAVYYCARGRAYGSGSLFDPWGQGTLVTVSS
VL: DIQLTQSPSSLSASVGDRVTITCRASRTISIYVNWYRQRPGKAPESLIYAASNLHSGVPSRFSGSGSGTDFTLTISSLQPEDFATYYCQQSIGRGVVTFGQGTKLEIK
notes: Whole IgG expressed from pdCMV-dhfrC-Ab417; also called IgG form of Ab4M-18 (codon-optimised)
Turning to B1, the Kd worked out at 0.18 nM in [1]; 0.1 nM in assay [2]; 0.21 nM in assay [4]; 1.2 nM in assay [6]; 0.239 nM in assay [7]; 0.108 nM in assay [8]. Besides, the Kd in assay [9] came out at 0.2 nM; in [10], 0.0348 nM. For the same molecule, the koff in assay [1] stood at 2.33e-05 s⁻¹; in assay [7], 4.51e-05 s⁻¹; in assay [8] it was 2.64e-05 s⁻¹; in assay [10] it was 8.1e-06 s⁻¹. The kon in assay [1] was 127000 M⁻¹ s⁻¹; in assay [7] it was 189000 M⁻¹ s⁻¹; in [8], 244000 M⁻¹ s⁻¹; in assay [10] it was 233000 M⁻¹ s⁻¹. Moreover, the “fold higher affinity than Ab4M” value in assay [3] is roughly 2 fold; in assay [5], roughly 2.4 fold. In addition, the “fold higher affinity than Ab4” value in assay [4] was roughly 8 fold; in assay [5], roughly 92 fold.

As a reminder, the Kd is the constant that tells how readily two partners part at equilibrium. A lower Kd goes with a tighter complex. By koff is commonly meant a measure of how fast the partners let go of each other. Read a high koff as a short-lived complex. For orientation: kon means the second-order rate constant of association. High values mean faster complex formation, low ones slower complex formation.

The values are drawn from patent publication US20150344571A1 (KANGWON NATIONAL UNIVERSITY UNIVERSITY INDUSTRY COOPERATION …, published 2015).
